Data as given in patent US20190338009A1 (ZEALAND PHARMA A S, published 2019).
Square brackets hold non-standard residues; d marks the D form. Aib = CC(C)(N)C(=O)O

T1: human GLP-2 receptor (hGLP2-R) (human, UniProt O95838 1-553)
T1 sequence (looked up): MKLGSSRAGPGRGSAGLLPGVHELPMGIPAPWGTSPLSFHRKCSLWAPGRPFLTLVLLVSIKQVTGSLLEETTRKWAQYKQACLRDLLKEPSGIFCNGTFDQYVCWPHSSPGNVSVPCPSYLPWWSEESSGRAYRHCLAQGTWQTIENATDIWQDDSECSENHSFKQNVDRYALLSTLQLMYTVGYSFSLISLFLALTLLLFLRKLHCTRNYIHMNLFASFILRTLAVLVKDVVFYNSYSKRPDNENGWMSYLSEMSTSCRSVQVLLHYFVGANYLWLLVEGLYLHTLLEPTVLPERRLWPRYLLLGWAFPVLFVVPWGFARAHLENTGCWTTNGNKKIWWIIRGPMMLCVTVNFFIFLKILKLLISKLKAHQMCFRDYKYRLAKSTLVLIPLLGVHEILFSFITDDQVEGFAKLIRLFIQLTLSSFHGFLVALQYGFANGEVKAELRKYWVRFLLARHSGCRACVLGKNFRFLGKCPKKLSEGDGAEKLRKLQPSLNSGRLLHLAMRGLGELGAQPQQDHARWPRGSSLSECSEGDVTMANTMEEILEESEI


Key:
[1] = molecular target: human glucagon-like peptide 1 receptor (GLP-1R) (human, UniProt P43220 24-463); experiment: cell-based or functional assay
[2] = molecular target: T1, human GLP-2 receptor (hGLP2-R); experiment: cell-based or functional assay

Binder | EC50 GLP-1 (nM); cAMP AlphaScreen, HEK293 cells expressing human GLP-1R [1] [nM] | EC50 GLP-2 (nM); cAMP AlphaScreen, HEK293 cells expressing human GLP-2R [2] [nM]
H-H[Aib]EGTFTSELATILDEQAARDFIAWLHAHKITD-OH (SMILES CC[C@H](C)[C@H](NC(=O)[C@H](Cc1ccccc1)NC(=O)[C@H](CC(=O)O)NC(=O)[C@H](CCCNC(=N)N)NC(=O)[C@H](C)NC(=O)[C@H](C)NC(=O)[C@H](CCC(N)=O)NC(=O)[C@H](CCC(=O)O)NC(=O)[C@H](CC(=O)O)NC(=O)[C@H](CC(C)C)NC(=O)[C@@H](NC(=O)[C@@H](NC(=O)[C@H](C)NC(=O)[C@H](CC(C)C)NC(=O)[C@H](CCC(=O)O)NC(=O)[C@H](CO)NC(=O)[C@@H](NC(=O)[C@H](Cc1ccccc1)NC(=O)[C@@H](NC(=O)CNC(=O)[C@H](CCC(=O)O)NC(=O)C(C)(C)NC(=O)[C@@H](N)Cc1c[nH]cn1)[C@@H](C)O)[C@@H](C)O)[C@@H](C)O)[C@@H](C)CC)C(=O)N[C@@H](C)C(=O)N[C@@H](Cc1c[nH]c2ccccc12)C(=O)N[C@@H](CC(C)C)C(=O)N[C@@H](Cc1c[nH]cn1)C(=O)N[C@@H](C)C(=O)N[C@@H](Cc1c[nH]cn1)C(=O)N[C@@H](CCCCN)C(=O)N[C@H](C(=O)N[C@H](C(=O)N[C@@H](CC(=O)O)C(=O)O)[C@@H](C)O)[C@@H](C)CC) [Compound 12] | 0.055 | 0.076
H-H[Aib]EGTFTSELATILDEQAARDFIAWLIQHKITD-OH (SMILES CC[C@H](C)[C@H](NC(=O)[C@H](Cc1ccccc1)NC(=O)[C@H](CC(=O)O)NC(=O)[C@H](CCCNC(=N)N)NC(=O)[C@H](C)NC(=O)[C@H](C)NC(=O)[C@H](CCC(N)=O)NC(=O)[C@H](CCC(=O)O)NC(=O)[C@H](CC(=O)O)NC(=O)[C@H](CC(C)C)NC(=O)[C@@H](NC(=O)[C@@H](NC(=O)[C@H](C)NC(=O)[C@H](CC(C)C)NC(=O)[C@H](CCC(=O)O)NC(=O)[C@H](CO)NC(=O)[C@@H](NC(=O)[C@H](Cc1ccccc1)NC(=O)[C@@H](NC(=O)CNC(=O)[C@H](CCC(=O)O)NC(=O)C(C)(C)NC(=O)[C@@H](N)Cc1c[nH]cn1)[C@@H](C)O)[C@@H](C)O)[C@@H](C)O)[C@@H](C)CC)C(=O)N[C@@H](C)C(=O)N[C@@H](Cc1c[nH]c2ccccc12)C(=O)N[C@@H](CC(C)C)C(=O)N[C@H](C(=O)N[C@@H](CCC(N)=O)C(=O)N[C@@H](Cc1c[nH]cn1)C(=O)N[C@@H](CCCCN)C(=O)N[C@H](C(=O)N[C@H](C(=O)N[C@@H](CC(=O)O)C(=O)O)[C@@H](C)O)[C@@H](C)CC)[C@@H](C)CC) [Compound 15] | 0.005 | 0.038
H-H[Aib]EGTFTSELATILDEQAARDFIAWLYAHKITD-OH (SMILES CC[C@H](C)[C@H](NC(=O)[C@H](Cc1ccccc1)NC(=O)[C@H](CC(=O)O)NC(=O)[C@H](CCCNC(=N)N)NC(=O)[C@H](C)NC(=O)[C@H](C)NC(=O)[C@H](CCC(N)=O)NC(=O)[C@H](CCC(=O)O)NC(=O)[C@H](CC(=O)O)NC(=O)[C@H](CC(C)C)NC(=O)[C@@H](NC(=O)[C@@H](NC(=O)[C@H](C)NC(=O)[C@H](CC(C)C)NC(=O)[C@H](CCC(=O)O)NC(=O)[C@H](CO)NC(=O)[C@@H](NC(=O)[C@H](Cc1ccccc1)NC(=O)[C@@H](NC(=O)CNC(=O)[C@H](CCC(=O)O)NC(=O)C(C)(C)NC(=O)[C@@H](N)Cc1c[nH]cn1)[C@@H](C)O)[C@@H](C)O)[C@@H](C)O)[C@@H](C)CC)C(=O)N[C@@H](C)C(=O)N[C@@H](Cc1c[nH]c2ccccc12)C(=O)N[C@@H](CC(C)C)C(=O)N[C@@H](Cc1ccc(O)cc1)C(=O)N[C@@H](C)C(=O)N[C@@H](Cc1c[nH]cn1)C(=O)N[C@@H](CCCCN)C(=O)N[C@H](C(=O)N[C@H](C(=O)N[C@@H](CC(=O)O)C(=O)O)[C@@H](C)O)[C@@H](C)CC) [Compound 14] | 0.021 | 0.049
H-H[Aib]EGTFTSELATILDGKAARDFIAWLIAHKITD-OH (SMILES CC[C@H](C)[C@H](NC(=O)[C@H](CC(C)C)NC(=O)[C@H](Cc1c[nH]c2ccccc12)NC(=O)[C@H](C)NC(=O)[C@@H](NC(=O)[C@H](Cc1ccccc1)NC(=O)[C@H](CC(=O)O)NC(=O)[C@H](CCCNC(=N)N)NC(=O)[C@H](C)NC(=O)[C@H](C)NC(=O)[C@H](CCCCN)NC(=O)CNC(=O)[C@H](CC(=O)O)NC(=O)[C@H](CC(C)C)NC(=O)[C@@H](NC(=O)[C@@H](NC(=O)[C@H](C)NC(=O)[C@H](CC(C)C)NC(=O)[C@H](CCC(=O)O)NC(=O)[C@H](CO)NC(=O)[C@@H](NC(=O)[C@H](Cc1ccccc1)NC(=O)[C@@H](NC(=O)CNC(=O)[C@H](CCC(=O)O)NC(=O)C(C)(C)NC(=O)[C@@H](N)Cc1c[nH]cn1)[C@@H](C)O)[C@@H](C)O)[C@@H](C)O)[C@@H](C)CC)[C@@H](C)CC)C(=O)N[C@@H](C)C(=O)N[C@@H](Cc1c[nH]cn1)C(=O)N[C@@H](CCCCN)C(=O)N[C@H](C(=O)N[C@H](C(=O)N[C@@H](CC(=O)O)C(=O)O)[C@@H](C)O)[C@@H](C)CC) [Compound 11] | 0.011 | 0.085
H-H[Aib]EGTFTSELSTILDEQAARDFIAWLIAHKITD-OH (SMILES CC[C@H](C)[C@H](NC(=O)[C@H](CC(C)C)NC(=O)[C@H](Cc1c[nH]c2ccccc12)NC(=O)[C@H](C)NC(=O)[C@@H](NC(=O)[C@H](Cc1ccccc1)NC(=O)[C@H](CC(=O)O)NC(=O)[C@H](CCCNC(=N)N)NC(=O)[C@H](C)NC(=O)[C@H](C)NC(=O)[C@H](CCC(N)=O)NC(=O)[C@H](CCC(=O)O)NC(=O)[C@H](CC(=O)O)NC(=O)[C@H](CC(C)C)NC(=O)[C@@H](NC(=O)[C@@H](NC(=O)[C@H](CO)NC(=O)[C@H](CC(C)C)NC(=O)[C@H](CCC(=O)O)NC(=O)[C@H](CO)NC(=O)[C@@H](NC(=O)[C@H](Cc1ccccc1)NC(=O)[C@@H](NC(=O)CNC(=O)[C@H](CCC(=O)O)NC(=O)C(C)(C)NC(=O)[C@@H](N)Cc1c[nH]cn1)[C@@H](C)O)[C@@H](C)O)[C@@H](C)O)[C@@H](C)CC)[C@@H](C)CC)C(=O)N[C@@H](C)C(=O)N[C@@H](Cc1c[nH]cn1)C(=O)N[C@@H](CCCCN)C(=O)N[C@H](C(=O)N[C@H](C(=O)N[C@@H](CC(=O)O)C(=O)O)[C@@H](C)O)[C@@H](C)CC) [Compound 10] | 0.005 | 0.05
H-H[Aib]EGTFTSELATILDEQAARDFIAWLIKHKITD-OH (SMILES CC[C@H](C)[C@H](NC(=O)[C@H](Cc1ccccc1)NC(=O)[C@H](CC(=O)O)NC(=O)[C@H](CCCNC(=N)N)NC(=O)[C@H](C)NC(=O)[C@H](C)NC(=O)[C@H](CCC(N)=O)NC(=O)[C@H](CCC(=O)O)NC(=O)[C@H](CC(=O)O)NC(=O)[C@H](CC(C)C)NC(=O)[C@@H](NC(=O)[C@@H](NC(=O)[C@H](C)NC(=O)[C@H](CC(C)C)NC(=O)[C@H](CCC(=O)O)NC(=O)[C@H](CO)NC(=O)[C@@H](NC(=O)[C@H](Cc1ccccc1)NC(=O)[C@@H](NC(=O)CNC(=O)[C@H](CCC(=O)O)NC(=O)C(C)(C)NC(=O)[C@@H](N)Cc1c[nH]cn1)[C@@H](C)O)[C@@H](C)O)[C@@H](C)O)[C@@H](C)CC)C(=O)N[C@@H](C)C(=O)N[C@@H](Cc1c[nH]c2ccccc12)C(=O)N[C@@H](CC(C)C)C(=O)N[C@H](C(=O)N[C@@H](CCCCN)C(=O)N[C@@H](Cc1c[nH]cn1)C(=O)N[C@@H](CCCCN)C(=O)N[C@H](C(=O)N[C@H](C(=O)N[C@@H](CC(=O)O)C(=O)O)[C@@H](C)O)[C@@H](C)CC)[C@@H](C)CC) [Compound 16] | 0.006 | 0.026
H-H[Aib]EGTFTSELATILDEQAARDFIAWLQAHKITD-OH (SMILES CC[C@H](C)[C@H](NC(=O)[C@H](Cc1ccccc1)NC(=O)[C@H](CC(=O)O)NC(=O)[C@H](CCCNC(=N)N)NC(=O)[C@H](C)NC(=O)[C@H](C)NC(=O)[C@H](CCC(N)=O)NC(=O)[C@H](CCC(=O)O)NC(=O)[C@H](CC(=O)O)NC(=O)[C@H](CC(C)C)NC(=O)[C@@H](NC(=O)[C@@H](NC(=O)[C@H](C)NC(=O)[C@H](CC(C)C)NC(=O)[C@H](CCC(=O)O)NC(=O)[C@H](CO)NC(=O)[C@@H](NC(=O)[C@H](Cc1ccccc1)NC(=O)[C@@H](NC(=O)CNC(=O)[C@H](CCC(=O)O)NC(=O)C(C)(C)NC(=O)[C@@H](N)Cc1c[nH]cn1)[C@@H](C)O)[C@@H](C)O)[C@@H](C)O)[C@@H](C)CC)C(=O)N[C@@H](C)C(=O)N[C@@H](Cc1c[nH]c2ccccc12)C(=O)N[C@@H](CC(C)C)C(=O)N[C@@H](CCC(N)=O)C(=O)N[C@@H](C)C(=O)N[C@@H](Cc1c[nH]cn1)C(=O)N[C@@H](CCCCN)C(=O)N[C@H](C(=O)N[C@H](C(=O)N[C@@H](CC(=O)O)C(=O)O)[C@@H](C)O)[C@@H](C)CC) [Compound 13] | 0.016 | 0.083
